The source of these data is IntAct's records for PubMed 31515488.

First the molecules themselves.
B1: Myeloid leukemia factor 1 (Homo sapiens), P58340 (parent)
chain: MFRMLNSSFEDDPFFSESILAHRENMRQMIRSFSEPFGRDLLSISDGRGRAHNRRGHNDGEDSLTHTDVSSFQTMDQMVSNMRNYMQKLERNFGQLSVDPNGHSFCSSSVMTYSKIGDEPPKVFQASTQTRRAPGGIKETRKAMRDSDSGLEKMAIGHHIHDRAHVIKKSKNKKTGDEEVNQEFINMNESDAHAFDEEWQSEVLKYKPGRHNLGNTRMRSVGHENPGSRELKRREKPQQSPAIEHGRRSNVLGDKLHIKGSSVKSNKK
partner: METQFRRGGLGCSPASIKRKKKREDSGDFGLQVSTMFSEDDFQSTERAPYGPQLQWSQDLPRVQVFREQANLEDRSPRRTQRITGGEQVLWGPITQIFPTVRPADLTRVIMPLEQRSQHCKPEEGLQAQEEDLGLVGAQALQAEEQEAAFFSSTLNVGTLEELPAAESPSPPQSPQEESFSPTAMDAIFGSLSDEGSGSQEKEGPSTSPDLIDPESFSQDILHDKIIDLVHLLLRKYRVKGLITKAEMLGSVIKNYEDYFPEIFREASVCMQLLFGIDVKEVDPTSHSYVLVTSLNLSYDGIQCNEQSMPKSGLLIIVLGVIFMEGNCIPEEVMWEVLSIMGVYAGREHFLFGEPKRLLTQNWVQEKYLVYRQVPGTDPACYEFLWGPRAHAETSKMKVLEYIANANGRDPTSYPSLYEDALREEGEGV
B2: Meiotic recombination protein DMC1/LIM15 homolog (Homo sapiens), Q14565 (parent)
chain: MKEDQVVAEEPGFQDEEESLFQDIDLLQKHGINVADIKKLKSVGICTIKGIQMTTRRALCNVKGLSEAKVDKIKEAANKLIEPGFLTAFEYSEKRKMVFHITTGSQEFDKLLGGGIESMAITEAFGEFRTGKTQLSHTLCVTAQLPGAGGYPGGKIIFIDTENTFRPDRLRDIADRFNVDHDAVLDNVLYARAYTSEHQMELLDYVAAKFHEEAGIFKLLIIDSIMALFRVDFSGRGELAERQQKLAQMLSRLQKISEEYNVAVFVTNQMTADPGATMTFQADPKKPIGGHILAHASTTRISLRKGRGELRIAKIYDSPEMPENEATFAITAGGIGDAKE
B3: Tektin-3 (Homo sapiens), Q9BXF9 (parent)
chain: MERVGCTLTTTYAHPRPTPTNFLPAISTMASSYRDRFPHSNLTHSLSLPWRPSTYYKVASNSPSVAPYCTRSQRVSENTMLPFVSNRTTFFTRYTPDDWYRSNLTNYQESNTSRHNSEKLRVDTSRLIQDKYQQTRKTQADTTQNLGERVNDIGFWKSEIIHELDEMIGETNALTDVKKRLERALMETEAPLQVARECLFHREKRMGIDLVHDEVEAQLLTEVDTILCCQERMKLHLDKAIAQLAANRASQHELEKDLSDKQTAYRIDDKCHHLRNTSDGVGYFRGVERVDATVSVPESWAKFTDDNILRSQSERAASAKLRDDIENLLVVTANEMWNQFNKVNLSFTNRIAETADAKNKIQTHLAKTLQEIFQTEMTIESIKKAIKDKTAFLKVAQTRLDERTRRPNIELCRDMAQLRLVNEVHEVDDTIQTLQQRLRDAEDTLQSLVHIKATLEYDLAVKANSLYIDQEKCMSMRKSYPNTLRLVGFC
partner: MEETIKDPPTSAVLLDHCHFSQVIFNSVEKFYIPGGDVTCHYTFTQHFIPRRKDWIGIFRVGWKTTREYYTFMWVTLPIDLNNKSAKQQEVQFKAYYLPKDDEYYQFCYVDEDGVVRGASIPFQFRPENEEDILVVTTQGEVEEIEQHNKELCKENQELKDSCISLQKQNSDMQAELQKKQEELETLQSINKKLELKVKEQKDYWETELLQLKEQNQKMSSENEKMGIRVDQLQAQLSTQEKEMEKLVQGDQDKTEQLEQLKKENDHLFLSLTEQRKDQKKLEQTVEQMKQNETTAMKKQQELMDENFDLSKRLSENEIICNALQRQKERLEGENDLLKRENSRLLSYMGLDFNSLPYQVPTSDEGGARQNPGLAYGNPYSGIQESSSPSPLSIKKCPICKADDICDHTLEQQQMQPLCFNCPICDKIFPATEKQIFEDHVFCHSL
B4: Zinc finger CCCH-type with G patch domain-containing protein (Homo sapiens), Q8N5A5 (parent)
chain: MDEESLESALQTYRAQLQQVELALGAGLDSSEQADLRQLQGDLKELIELTEASLVSVRKSSLLAALDEERPGRQEDAEYQAFREAITEAVEAPAAARGSGSETVPKAEAGPESAAGGQEEEEGEDEEELSGTKVSAPYYSSWGTLEYHNAMVVGTEEAEDGSAGVRVLYLYPTHKSLKPCPFFLEGKCRFKENCRFSHGQVVSLDELRPFQDPDLSSLQAGSACLAKHQDGLWHAARITDVDNGYYTVKFDSLLLREAVVEGDGILPPLRTEATESDSDSDGTGDSSYARVVGSDAVDSAQSSALCPSLAVVGSDAVDSGTCSSAFAGWEVHTRGIGSRLLTKMGYEFGKGLGRHAEGRVEPIHAVVLPRGKSLDQCVETLQKQTRVGKAGTNKPPRCRGRGARPGGRPAPRNVFDFLNEKLQGQAPGALEAGAAPAGRRSKDMYHASKSAKRALSLRLFQTEEKIERTQRDIRSIQEALARNAGRHSVASAQLQEKLAGAQRQLGQLRAQEAGLQQEQRKADTHKKMTEF
B5: Baculoviral IAP repeat-containing protein 7 (Homo sapiens), Q96CA5-1 (parent)
chain: MGPKDSAKCLHRGPQPSHWAAGDGPTQERCGPRSLGSPVLGLDTCRAWDHVDGQILGQLRPLTEEEEEEGAGATLSRGPAFPGMGSEELRLASFYDWPLTAEVPPELLAAAGFFHTGHQDKVRCFFCYGGLQSWKRGDDPWTEHAKWFPSCQFLLRSKGRDFVHSVQETHSQLLGSWDPWEEPEDAAPVAPSVPASGYPELPTPRREVQSESAQEPGGVSPAEAQRAWWVLEPPGARDVEAQLRRLQEERTCKVCLDRAVSIVFVPCGHLVCAECAPGLQLCPICRAPVRSRVRTFLS
B6: Pachytene checkpoint protein 2 homolog (Homo sapiens), Q15645 (parent)
chain: MDEAVGDLKQALPCVAESPTVHVEVHQRGSSTAKKEDINLSVRKLLNRHNIVFGDYTWTEFDEPFLTRNVQSVSIIDTELKVKDSQPIDLSACTVALHIFQLNEDGPSSENLEEETENIIAANHWVLPAAEFHGLWDSLVYDVEVKSHLLDYVMTTLLFSDKNVNSNLITWNRVVLLHGPPGTGKTSLCKALAQKLTIRLSSRYRYGQLIEINSHSLFSKWFSESGKLVTKMFQKIQDLIDDKDALVFVLIDEVESLTAARNACRAGTEPSDAIRVVNAVLTQIDQIKRHSNVVILTTSNITEKIDVAFVDRADIKQYIGPPSAAAIFKIYLSCLEELMKCQIIYPRQQLLTLRELEMIGFIENNVSKLSLLLNDISRKSEGLSGRVLRKLPFLAHALYVQAPTVTIEGFLQALSLAVDKQFEERKKLAAYI
partner: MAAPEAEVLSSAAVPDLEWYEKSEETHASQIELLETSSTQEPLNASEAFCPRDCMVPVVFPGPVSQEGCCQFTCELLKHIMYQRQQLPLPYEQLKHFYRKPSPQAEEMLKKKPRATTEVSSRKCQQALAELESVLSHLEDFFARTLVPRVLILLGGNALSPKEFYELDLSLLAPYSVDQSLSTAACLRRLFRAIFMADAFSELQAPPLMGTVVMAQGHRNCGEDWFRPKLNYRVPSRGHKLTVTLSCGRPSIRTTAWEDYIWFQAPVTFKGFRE
B7: STAM-binding protein (Homo sapiens), O95630 (parent)
chain: MSDHGDVSLPPEDRVRALSQLGSAVEVNEDIPPRRYFRSGVEIIRMASIYSEEGNIEHAFILYNKYITLFIEKLPKHRDYKSAVIPEKKDTVKKLKEIAFPKAEELKAELLKRYTKEYTEYNEEKKKEAEELARNMAIQQELEKEKQRVAQQKQQQLEQEQFHAFEEMIRNQELEKERLKIVQEFGKVDPGLGGPLVPDLEKPSLDVFPTLTVSSIQPSDCHTTVRPAKPPVVDRSLKPGALSNSESIPTIDGLRHVVVPGRLCPQFLQLASANTARGVETCGILCGKLMRNEFTITHVLIPKQSAGSDYCNTENEEELFLIQDQQGLITLGWIHTHPTQTAFLSSVDLHTHCSYQMMLPESVAIVCSPKFQETGFFKLTDHGLEEISSCRQKGFHPHSKDPPLFCSCSHVTVVDRAVTITDLR
partner: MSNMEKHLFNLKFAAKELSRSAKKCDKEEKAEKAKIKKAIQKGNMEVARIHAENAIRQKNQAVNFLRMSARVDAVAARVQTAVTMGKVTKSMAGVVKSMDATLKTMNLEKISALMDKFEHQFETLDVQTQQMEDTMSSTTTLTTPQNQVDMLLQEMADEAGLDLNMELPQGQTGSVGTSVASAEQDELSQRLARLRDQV

The variants in the first experiment derive from B1. Particulars: with magab_human MAGEA11, P43364.
With P226T, the “effect of a mutation on the interaction” value is listed as “with no effect”.

Variants of B2 are the subject of a further experiment. Particulars: with gors2_human GORASP2, Q9H8Y8.
As for I288T, the “effect of a mutation on the interaction” value was “with no effect”.
M200V: the “effect of a mutation on the interaction” value is “with no effect”.

The next experiment covers variants of B2. Particulars: with sdcb1_human SDCBP.
As to I288T, the “effect of a mutation on the interaction” value is listed as “disrupting interaction strength”.
For the variant M200V, the “effect of a mutation on the interaction” value is “disrupting interaction strength”.

The variants in the next experiment derive from B2. Particulars: with psa3_human PSMA3, P25788.
Chain of psa3_human PSMA3, P25788 (P25788 whole entry): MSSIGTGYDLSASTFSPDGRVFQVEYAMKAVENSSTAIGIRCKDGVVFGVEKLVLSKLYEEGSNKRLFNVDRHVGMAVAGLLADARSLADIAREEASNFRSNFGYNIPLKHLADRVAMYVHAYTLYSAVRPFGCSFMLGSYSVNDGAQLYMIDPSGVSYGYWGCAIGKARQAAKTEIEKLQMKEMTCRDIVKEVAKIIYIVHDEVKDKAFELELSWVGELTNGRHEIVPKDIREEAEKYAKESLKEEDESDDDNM
As for I288T, the “effect of a mutation on the interaction” value is given as “disrupting interaction strength”.
Take M200V: the “effect of a mutation on the interaction” value is reported as “with no effect”.

The variants in a further experiment derive from B2. As to conditions: with kcd17_human KCTD17, Q8N5Z5.
Chain of kcd17_human KCTD17, Q8N5Z5 (Q8N5Z5 whole entry): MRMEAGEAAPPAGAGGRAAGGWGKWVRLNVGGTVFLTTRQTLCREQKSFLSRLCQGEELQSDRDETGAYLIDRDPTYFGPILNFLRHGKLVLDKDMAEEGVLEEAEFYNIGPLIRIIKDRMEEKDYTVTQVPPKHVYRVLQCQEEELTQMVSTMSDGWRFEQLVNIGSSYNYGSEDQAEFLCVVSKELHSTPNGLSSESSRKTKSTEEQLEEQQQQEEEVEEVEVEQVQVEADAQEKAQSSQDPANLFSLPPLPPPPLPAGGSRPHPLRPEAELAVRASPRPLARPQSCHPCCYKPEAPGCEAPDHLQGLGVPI
Turning to M200V, the “effect of a mutation on the interaction” value was “disrupting interaction strength”.

Variants of B3 are the subject of a further experiment. As to conditions: with caco2_human CALCOCO2, Q13137.
Consider Q129K, for which the “effect of a mutation on the interaction” value is “with no effect”.
As to R196Q, the “effect of a mutation on the interaction” value is reported as “with no effect”.
On to G282A, for which the “effect of a mutation on the interaction” value is given as “with no effect”.

A further experiment covers variants of B4. As to conditions: with tfp11_human TFIP11, Q9UBB9.
Chain of tfp11_human TFIP11, Q9UBB9 (Q9UBB9 whole entry): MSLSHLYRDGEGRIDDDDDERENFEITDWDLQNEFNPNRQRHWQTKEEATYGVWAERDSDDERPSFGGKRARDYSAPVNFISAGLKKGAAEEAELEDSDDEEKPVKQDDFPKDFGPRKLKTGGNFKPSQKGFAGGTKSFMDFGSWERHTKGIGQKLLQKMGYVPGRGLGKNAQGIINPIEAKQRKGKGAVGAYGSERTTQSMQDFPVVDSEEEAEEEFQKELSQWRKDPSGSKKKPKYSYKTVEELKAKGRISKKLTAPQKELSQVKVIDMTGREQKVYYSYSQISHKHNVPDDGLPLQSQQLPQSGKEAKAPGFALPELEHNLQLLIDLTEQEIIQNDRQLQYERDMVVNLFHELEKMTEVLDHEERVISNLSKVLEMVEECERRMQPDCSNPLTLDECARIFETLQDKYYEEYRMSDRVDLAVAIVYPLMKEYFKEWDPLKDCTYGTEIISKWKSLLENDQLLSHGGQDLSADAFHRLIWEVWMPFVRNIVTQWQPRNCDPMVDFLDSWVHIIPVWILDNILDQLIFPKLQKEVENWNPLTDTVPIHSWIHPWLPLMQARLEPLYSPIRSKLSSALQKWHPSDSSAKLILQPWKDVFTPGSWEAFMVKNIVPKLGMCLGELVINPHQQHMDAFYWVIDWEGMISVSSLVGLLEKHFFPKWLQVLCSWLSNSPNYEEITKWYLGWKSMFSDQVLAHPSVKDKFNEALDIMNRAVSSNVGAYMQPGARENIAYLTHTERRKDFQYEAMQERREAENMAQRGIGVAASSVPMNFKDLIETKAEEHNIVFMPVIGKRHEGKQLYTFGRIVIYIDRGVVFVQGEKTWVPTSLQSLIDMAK
On to S61R, for which the “effect of a mutation on the interaction” value was “with no effect”.

In a further experiment the parent is B4. Particulars: with cep70_human CEP70, Q8NHQ1.
Chain of cep70_human CEP70, Q8NHQ1 (Q8NHQ1 whole entry): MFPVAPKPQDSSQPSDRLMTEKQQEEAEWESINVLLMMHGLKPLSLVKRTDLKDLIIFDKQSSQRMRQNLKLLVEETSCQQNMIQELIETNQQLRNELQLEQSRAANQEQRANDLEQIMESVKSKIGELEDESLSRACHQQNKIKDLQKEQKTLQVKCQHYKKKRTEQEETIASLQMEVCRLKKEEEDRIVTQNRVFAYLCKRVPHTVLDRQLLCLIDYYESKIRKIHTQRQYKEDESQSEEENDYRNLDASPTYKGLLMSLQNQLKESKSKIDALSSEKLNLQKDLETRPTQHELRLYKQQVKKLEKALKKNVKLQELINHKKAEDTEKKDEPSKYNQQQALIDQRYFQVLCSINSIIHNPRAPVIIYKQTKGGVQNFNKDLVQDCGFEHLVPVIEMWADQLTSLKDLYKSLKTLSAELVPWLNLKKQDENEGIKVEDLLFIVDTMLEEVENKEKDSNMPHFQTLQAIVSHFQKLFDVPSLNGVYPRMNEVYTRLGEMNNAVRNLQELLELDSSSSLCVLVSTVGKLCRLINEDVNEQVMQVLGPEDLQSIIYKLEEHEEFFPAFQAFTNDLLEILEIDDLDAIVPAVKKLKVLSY
On to S61R, for which the “effect of a mutation on the interaction” value was “with no effect”.

Variants of B4 are the subject of a further experiment. Particulars: with ldoc1_human LDOC1, O95751.
Chain of ldoc1_human LDOC1, O95751 (O95751 whole entry): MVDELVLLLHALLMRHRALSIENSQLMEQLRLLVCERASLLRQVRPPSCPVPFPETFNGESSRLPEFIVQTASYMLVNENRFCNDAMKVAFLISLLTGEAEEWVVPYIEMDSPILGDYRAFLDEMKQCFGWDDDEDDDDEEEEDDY
As for S61R, the “effect of a mutation on the interaction” value is “with no effect”.

In another experiment the parent is B5. Particulars: with phf1_human PHF1, O43189.
Chain of phf1_human PHF1, O43189 (O43189 whole entry): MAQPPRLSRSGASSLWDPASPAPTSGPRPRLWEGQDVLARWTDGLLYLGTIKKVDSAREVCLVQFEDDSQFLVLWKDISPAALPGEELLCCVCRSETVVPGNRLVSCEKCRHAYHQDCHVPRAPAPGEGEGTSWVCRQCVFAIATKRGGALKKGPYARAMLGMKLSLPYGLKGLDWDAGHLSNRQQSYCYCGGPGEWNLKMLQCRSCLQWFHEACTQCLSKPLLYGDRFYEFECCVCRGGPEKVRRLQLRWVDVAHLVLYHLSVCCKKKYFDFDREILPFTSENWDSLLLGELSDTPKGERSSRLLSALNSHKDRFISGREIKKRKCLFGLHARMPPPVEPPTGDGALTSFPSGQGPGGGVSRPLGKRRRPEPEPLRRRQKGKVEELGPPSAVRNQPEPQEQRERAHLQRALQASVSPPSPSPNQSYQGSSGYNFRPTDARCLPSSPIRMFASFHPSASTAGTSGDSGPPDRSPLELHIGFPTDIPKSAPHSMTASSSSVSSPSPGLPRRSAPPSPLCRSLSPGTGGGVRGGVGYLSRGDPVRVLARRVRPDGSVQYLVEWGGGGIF
With H164R, the “effect of a mutation on the interaction” value is recorded as “with no effect”.

Variants of B5 are the subject of the next experiment. Particulars: with ddx6_human DDX6, P26196.
Chain of ddx6_human DDX6, P26196 (P26196 whole entry): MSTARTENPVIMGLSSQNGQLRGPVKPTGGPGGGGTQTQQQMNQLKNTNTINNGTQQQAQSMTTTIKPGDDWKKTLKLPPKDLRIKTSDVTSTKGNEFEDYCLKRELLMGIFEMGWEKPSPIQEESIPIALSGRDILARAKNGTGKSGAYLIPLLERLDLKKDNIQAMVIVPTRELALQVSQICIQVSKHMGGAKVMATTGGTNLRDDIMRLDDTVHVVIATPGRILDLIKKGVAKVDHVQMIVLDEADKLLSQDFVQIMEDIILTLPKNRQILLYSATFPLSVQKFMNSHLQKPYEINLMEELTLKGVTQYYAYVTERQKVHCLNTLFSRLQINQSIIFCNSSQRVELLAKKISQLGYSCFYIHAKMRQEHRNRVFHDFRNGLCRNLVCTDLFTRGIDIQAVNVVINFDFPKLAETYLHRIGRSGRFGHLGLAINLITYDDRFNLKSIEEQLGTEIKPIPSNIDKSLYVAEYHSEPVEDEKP
Consider H164R, for which the “effect of a mutation on the interaction” value is given as “with no effect”.

The variants in the next experiment derive from B5. Particulars: with birc2_human BIRC2, Q13490.
Chain of birc2_human BIRC2, Q13490 (Q13490 whole entry): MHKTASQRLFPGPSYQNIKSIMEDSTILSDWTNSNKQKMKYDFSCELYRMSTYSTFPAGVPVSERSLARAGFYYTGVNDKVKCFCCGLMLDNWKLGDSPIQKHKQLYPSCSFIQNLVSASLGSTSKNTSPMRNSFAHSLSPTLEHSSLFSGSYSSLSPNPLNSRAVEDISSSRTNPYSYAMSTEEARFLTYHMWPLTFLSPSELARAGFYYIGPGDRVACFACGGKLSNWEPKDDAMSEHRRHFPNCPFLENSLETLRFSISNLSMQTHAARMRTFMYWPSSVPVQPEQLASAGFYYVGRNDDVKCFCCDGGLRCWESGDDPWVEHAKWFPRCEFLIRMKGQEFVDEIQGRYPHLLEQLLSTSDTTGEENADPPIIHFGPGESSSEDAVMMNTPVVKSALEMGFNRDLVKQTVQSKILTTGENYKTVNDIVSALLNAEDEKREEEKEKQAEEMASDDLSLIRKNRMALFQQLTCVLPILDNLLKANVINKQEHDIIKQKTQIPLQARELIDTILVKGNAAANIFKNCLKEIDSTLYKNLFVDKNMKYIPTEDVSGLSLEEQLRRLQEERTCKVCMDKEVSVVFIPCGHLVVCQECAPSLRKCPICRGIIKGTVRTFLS
With H164R, the “effect of a mutation on the interaction” value is recorded as “with no effect”.

Variants of B5 are the subject of a further experiment. As to conditions: with ddx6_human DDX6, P26196. The source holds these as a separate data set.
Regarding H164R, the “effect of a mutation on the interaction” value was “with no effect”.

Variants of B5 are the subject of a further experiment. Particulars: with casp9_human CASP9, P55211.
Chain of casp9_human CASP9, P55211 (P55211 whole entry): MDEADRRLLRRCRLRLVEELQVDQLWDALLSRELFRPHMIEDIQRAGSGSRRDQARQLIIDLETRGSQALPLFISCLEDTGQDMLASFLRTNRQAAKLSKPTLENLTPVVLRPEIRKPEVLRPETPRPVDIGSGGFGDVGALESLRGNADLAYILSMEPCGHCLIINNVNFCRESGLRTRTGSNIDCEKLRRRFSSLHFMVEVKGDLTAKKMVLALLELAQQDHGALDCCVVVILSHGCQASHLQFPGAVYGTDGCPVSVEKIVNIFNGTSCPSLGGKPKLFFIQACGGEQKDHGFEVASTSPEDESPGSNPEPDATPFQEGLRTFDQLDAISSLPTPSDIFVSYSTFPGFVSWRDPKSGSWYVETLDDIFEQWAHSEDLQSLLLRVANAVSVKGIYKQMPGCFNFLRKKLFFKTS
As for H164R, the “effect of a mutation on the interaction” value is on record as “with no effect”.

A further experiment covers variants of B5. Particulars: with birc2_human BIRC2, Q13490. This is another data set of the same source.
As to H164R, the “effect of a mutation on the interaction” value was “with no effect”.

The variants in a further experiment derive from B5. Particulars: with phf1_human PHF1, O43189. This is another data set of the same source.
As for H164R, the “effect of a mutation on the interaction” value was “with no effect”.

A further experiment covers variants of B5. As to conditions: with casp9_human CASP9, P55211. The source holds these as a separate data set.
For the variant H164R, the “effect of a mutation on the interaction” value is “with no effect”.

The variants in another experiment derive from B6. As to conditions: with md2bp_human MAD2L1BP.
For the variant G409E, the “effect of a mutation on the interaction” value is “with no effect”.

The variants in a further experiment derive from B7. As to conditions: with chm1b_human CHMP1B.
For the variant R255H, the “effect of a mutation on the interaction” value is listed as “with no effect”.
